Measurements: patent US20210139548A1 (published 2021)
*1 amine or outer side, *2 acyl side, *3 side chain or, on linkers, in order; H or OH if unused. Side-chain parts run from the residue outwards. The star is where a group is joined. C18 diacid = O=C(O)CCCCCCCCCCCCCCCCC(=O)*; γGlu = O=C(O)[C@H](CCC(=O)[*:2])N[*:1]; Isovaleryl = CC(C)CC(=O)*; AEEA = NCCOCCOCC(=O)O

T1: human neuropeptide Y2 receptor (human, UniProt P49146 1-381)
T1 construct: whole, on cells; also called hNPY2 receptor; hNPY2-R
T1 sequence (looked up): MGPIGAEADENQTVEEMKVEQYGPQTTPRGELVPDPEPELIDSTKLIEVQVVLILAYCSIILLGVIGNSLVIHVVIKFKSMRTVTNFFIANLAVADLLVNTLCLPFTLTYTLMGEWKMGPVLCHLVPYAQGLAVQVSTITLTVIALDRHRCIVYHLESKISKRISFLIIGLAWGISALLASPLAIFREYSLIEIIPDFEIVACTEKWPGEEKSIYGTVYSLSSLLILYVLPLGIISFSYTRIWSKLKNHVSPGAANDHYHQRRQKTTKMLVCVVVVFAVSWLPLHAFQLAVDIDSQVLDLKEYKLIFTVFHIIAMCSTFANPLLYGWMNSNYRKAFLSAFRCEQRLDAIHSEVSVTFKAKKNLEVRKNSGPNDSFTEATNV


Target: T1, human neuropeptide Y2 receptor
Assay: radioligand competition (125I-PYY(1-36)), hNPY2R membranes
How it was run: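 Commercial human Y2 receptor membranes (0.5 μg protein/well) were incubated with peptide for 2 h at room temperature in 50 mM HEPES, 5 mM MgCl₂, 1 mM CaCl₂, pH 7.4, with 0.2% ovalbumin. Bound radioligand was separated on PEI-soaked GF/C filters and counted by scintillation, and IC₅₀ came from nonlinear sigmoidal regression.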

Binder | Ki
Isovaleryl-APEK([AEEA-AEEA-γGlu-C18 diacid])PPEDAEPEELQRYYVSLRHYYNWLTRQRY-NH2 (SMILES CC(C)CC(=O)N[C@@H](C)C(=O)N1CCC[C@H]1C(=O)N[C@@H](CCC(=O)O)C(=O)N[C@@H](CCCCNC(=O)COCCOCCNC(=O)COCCOCCNC(=O)CC[C@H](NC(=O)CCCCCCCCCCCCCCCCC(=O)O)C(=O)O)C(=O)N1CCC[C@H]1C(=O)N1CCC[C@H]1C(=O)N[C@@H](CCC(=O)O)C(=O)N[C@@H](CC(=O)O)C(=O)N[C@@H](C)C(=O)N[C@@H](CCC(=O)O)C(=O)N1CCC[C@H]1C(=O)N[C@@H](CCC(=O)O)C(=O)N[C@@H](CCC(=O)O)C(=O)N[C@@H](CC(C)C)C(=O)N[C@@H](CCC(N)=O)C(=O)N[C@@H](CCCNC(=N)N)C(=O)N[C@@H](Cc1ccc(O)cc1)C(=O)N[C@@H](Cc1ccc(O)cc1)C(=O)N[C@H](C(=O)N[C@@H](CO)C(=O)N[C@@H](CC(C)C)C(=O)N[C@@H](CCCNC(=N)N)C(=O)N[C@@H](Cc1c[nH]cn1)C(=O)N[C@@H](Cc1ccc(O)cc1)C(=O)N[C@@H](Cc1ccc(O)cc1)C(=O)N[C@@H](CC(N)=O)C(=O)N[C@@H](Cc1c[nH]c2ccccc12)C(=O)N[C@@H](CC(C)C)C(=O)N[C@H](C(=O)N[C@@H](CCCNC(=N)N)C(=O)N[C@@H](CCC(N)=O)C(=O)N[C@@H](CCCNC(=N)N)C(=O)N[C@@H](Cc1ccc(O)cc1)C(N)=O)[C@@H](C)O)C(C)C) [Compound 27] | 0.96 nM
Isovaleryl-APEK([AEEA-AEEA-γGlu-C18 diacid])PEEPASPEELQRYYVELRHYYNWLTRQRY-NH2 (SMILES CC(C)CC(=O)N[C@@H](C)C(=O)N1CCC[C@H]1C(=O)N[C@@H](CCC(=O)O)C(=O)N[C@@H](CCCCNC(=O)COCCOCCNC(=O)COCCOCCNC(=O)CC[C@H](NC(=O)CCCCCCCCCCCCCCCCC(=O)O)C(=O)O)C(=O)N1CCC[C@H]1C(=O)N[C@@H](CCC(=O)O)C(=O)N[C@@H](CCC(=O)O)C(=O)N1CCC[C@H]1C(=O)N[C@@H](C)C(=O)N[C@@H](CO)C(=O)N1CCC[C@H]1C(=O)N[C@@H](CCC(=O)O)C(=O)N[C@@H](CCC(=O)O)C(=O)N[C@@H](CC(C)C)C(=O)N[C@@H](CCC(N)=O)C(=O)N[C@@H](CCCNC(=N)N)C(=O)N[C@@H](Cc1ccc(O)cc1)C(=O)N[C@@H](Cc1ccc(O)cc1)C(=O)N[C@H](C(=O)N[C@@H](CCC(=O)O)C(=O)N[C@@H](CC(C)C)C(=O)N[C@@H](CCCNC(=N)N)C(=O)N[C@@H](Cc1c[nH]cn1)C(=O)N[C@@H](Cc1ccc(O)cc1)C(=O)N[C@@H](Cc1ccc(O)cc1)C(=O)N[C@@H](CC(N)=O)C(=O)N[C@@H](Cc1c[nH]c2ccccc12)C(=O)N[C@@H](CC(C)C)C(=O)N[C@H](C(=O)N[C@@H](CCCNC(=N)N)C(=O)N[C@@H](CCC(N)=O)C(=O)N[C@@H](CCCNC(=N)N)C(=O)N[C@@H](Cc1ccc(O)cc1)C(N)=O)[C@@H](C)O)C(C)C) [Compound 33] | 0.45 nM
Isovaleryl-APEK([AEEA-AEEA-γGlu-C18 diacid])PEEDASPEELQRYYVSTRHYYNWLTRQRY-NH2 (SMILES CC(C)CC(=O)N[C@@H](C)C(=O)N1CCC[C@H]1C(=O)N[C@@H](CCC(=O)O)C(=O)N[C@@H](CCCCNC(=O)COCCOCCNC(=O)COCCOCCNC(=O)CC[C@H](NC(=O)CCCCCCCCCCCCCCCCC(=O)O)C(=O)O)C(=O)N1CCC[C@H]1C(=O)N[C@@H](CCC(=O)O)C(=O)N[C@@H](CCC(=O)O)C(=O)N[C@@H](CC(=O)O)C(=O)N[C@@H](C)C(=O)N[C@@H](CO)C(=O)N1CCC[C@H]1C(=O)N[C@@H](CCC(=O)O)C(=O)N[C@@H](CCC(=O)O)C(=O)N[C@@H](CC(C)C)C(=O)N[C@@H](CCC(N)=O)C(=O)N[C@@H](CCCNC(=N)N)C(=O)N[C@@H](Cc1ccc(O)cc1)C(=O)N[C@@H](Cc1ccc(O)cc1)C(=O)N[C@H](C(=O)N[C@@H](CO)C(=O)N[C@H](C(=O)N[C@@H](CCCNC(=N)N)C(=O)N[C@@H](Cc1c[nH]cn1)C(=O)N[C@@H](Cc1ccc(O)cc1)C(=O)N[C@@H](Cc1ccc(O)cc1)C(=O)N[C@@H](CC(N)=O)C(=O)N[C@@H](Cc1c[nH]c2ccccc12)C(=O)N[C@@H](CC(C)C)C(=O)N[C@H](C(=O)N[C@@H](CCCNC(=N)N)C(=O)N[C@@H](CCC(N)=O)C(=O)N[C@@H](CCCNC(=N)N)C(=O)N[C@@H](Cc1ccc(O)cc1)C(N)=O)[C@@H](C)O)[C@@H](C)O)C(C)C) [Compound 34] | 6.4 nM

Continued, values first:

Ki | Binder
0.77 nM | Isovaleryl-APEK([AEEA-AEEA-γGlu-C18 diacid])PPEDATPEELQRYYVSLRHYYNWLTRQRY-NH2 (SMILES CC(C)CC(=O)N[C@@H](C)C(=O)N1CCC[C@H]1C(=O)N[C@@H](CCC(=O)O)C(=O)N[C@@H](CCCCNC(=O)COCCOCCNC(=O)COCCOCCNC(=O)CC[C@H](NC(=O)CCCCCCCCCCCCCCCCC(=O)O)C(=O)O)C(=O)N1CCC[C@H]1C(=O)N1CCC[C@H]1C(=O)N[C@@H](CCC(=O)O)C(=O)N[C@@H](CC(=O)O)C(=O)N[C@@H](C)C(=O)N[C@H](C(=O)N1CCC[C@H]1C(=O)N[C@@H](CCC(=O)O)C(=O)N[C@@H](CCC(=O)O)C(=O)N[C@@H](CC(C)C)C(=O)N[C@@H](CCC(N)=O)C(=O)N[C@@H](CCCNC(=N)N)C(=O)N[C@@H](Cc1ccc(O)cc1)C(=O)N[C@@H](Cc1ccc(O)cc1)C(=O)N[C@H](C(=O)N[C@@H](CO)C(=O)N[C@@H](CC(C)C)C(=O)N[C@@H](CCCNC(=N)N)C(=O)N[C@@H](Cc1c[nH]cn1)C(=O)N[C@@H](Cc1ccc(O)cc1)C(=O)N[C@@H](Cc1ccc(O)cc1)C(=O)N[C@@H](CC(N)=O)C(=O)N[C@@H](Cc1c[nH]c2ccccc12)C(=O)N[C@@H](CC(C)C)C(=O)N[C@H](C(=O)N[C@@H](CCCNC(=N)N)C(=O)N[C@@H](CCC(N)=O)C(=O)N[C@@H](CCCNC(=N)N)C(=O)N[C@@H](Cc1ccc(O)cc1)C(N)=O)[C@@H](C)O)C(C)C)[C@@H](C)O) [Compound 26]
4.84 nM | Isovaleryl-APEK([AEEA-AEEA-γGlu-C18 diacid])PEEDTSPEELQRYEVSLRHYYNWLTRQRY-NH2 (SMILES CC(C)CC(=O)N[C@@H](C)C(=O)N1CCC[C@H]1C(=O)N[C@@H](CCC(=O)O)C(=O)N[C@@H](CCCCNC(=O)COCCOCCNC(=O)COCCOCCNC(=O)CC[C@H](NC(=O)CCCCCCCCCCCCCCCCC(=O)O)C(=O)O)C(=O)N1CCC[C@H]1C(=O)N[C@@H](CCC(=O)O)C(=O)N[C@@H](CCC(=O)O)C(=O)N[C@@H](CC(=O)O)C(=O)N[C@H](C(=O)N[C@@H](CO)C(=O)N1CCC[C@H]1C(=O)N[C@@H](CCC(=O)O)C(=O)N[C@@H](CCC(=O)O)C(=O)N[C@@H](CC(C)C)C(=O)N[C@@H](CCC(N)=O)C(=O)N[C@@H](CCCNC(=N)N)C(=O)N[C@@H](Cc1ccc(O)cc1)C(=O)N[C@@H](CCC(=O)O)C(=O)N[C@H](C(=O)N[C@@H](CO)C(=O)N[C@@H](CC(C)C)C(=O)N[C@@H](CCCNC(=N)N)C(=O)N[C@@H](Cc1c[nH]cn1)C(=O)N[C@@H](Cc1ccc(O)cc1)C(=O)N[C@@H](Cc1ccc(O)cc1)C(=O)N[C@@H](CC(N)=O)C(=O)N[C@@H](Cc1c[nH]c2ccccc12)C(=O)N[C@@H](CC(C)C)C(=O)N[C@H](C(=O)N[C@@H](CCCNC(=N)N)C(=O)N[C@@H](CCC(N)=O)C(=O)N[C@@H](CCCNC(=N)N)C(=O)N[C@@H](Cc1ccc(O)cc1)C(N)=O)[C@@H](C)O)C(C)C)[C@@H](C)O) [Compound 32]
6.03 nM | Isovaleryl-APEK([AEEA-AEEA-γGlu-C18 diacid])PEEDTSPEELQRYYVELRHYYNWLTRQRY-NH2 (SMILES CC(C)CC(=O)N[C@@H](C)C(=O)N1CCC[C@H]1C(=O)N[C@@H](CCC(=O)O)C(=O)N[C@@H](CCCCNC(=O)COCCOCCNC(=O)COCCOCCNC(=O)CC[C@H](NC(=O)CCCCCCCCCCCCCCCCC(=O)O)C(=O)O)C(=O)N1CCC[C@H]1C(=O)N[C@@H](CCC(=O)O)C(=O)N[C@@H](CCC(=O)O)C(=O)N[C@@H](CC(=O)O)C(=O)N[C@H](C(=O)N[C@@H](CO)C(=O)N1CCC[C@H]1C(=O)N[C@@H](CCC(=O)O)C(=O)N[C@@H](CCC(=O)O)C(=O)N[C@@H](CC(C)C)C(=O)N[C@@H](CCC(N)=O)C(=O)N[C@@H](CCCNC(=N)N)C(=O)N[C@@H](Cc1ccc(O)cc1)C(=O)N[C@@H](Cc1ccc(O)cc1)C(=O)N[C@H](C(=O)N[C@@H](CCC(=O)O)C(=O)N[C@@H](CC(C)C)C(=O)N[C@@H](CCCNC(=N)N)C(=O)N[C@@H](Cc1c[nH]cn1)C(=O)N[C@@H](Cc1ccc(O)cc1)C(=O)N[C@@H](Cc1ccc(O)cc1)C(=O)N[C@@H](CC(N)=O)C(=O)N[C@@H](Cc1c[nH]c2ccccc12)C(=O)N[C@@H](CC(C)C)C(=O)N[C@H](C(=O)N[C@@H](CCCNC(=N)N)C(=O)N[C@@H](CCC(N)=O)C(=O)N[C@@H](CCCNC(=N)N)C(=O)N[C@@H](Cc1ccc(O)cc1)C(N)=O)[C@@H](C)O)C(C)C)[C@@H](C)O) [Compound 28]
